Data set [1] has as its system Nc1ncnc2c1ncn2[C@@H]1O[C@H](COP(=O)(O)OP(=O)(O)OP(=O)(O)O)[C@@H](O)[C@H]1O. The data set is described as follows: steady-state kinetics of the nucleosidase reaction. It is filed as biochemical, Escherichia coli. The conditions noted are these: Mg2+.
Data set [2] addresses PhnI (C-P lyase nucleosidase) (Escherichia coli, UniProt P16687). It is filed as biochemical.

PhnI (C-P lyase nucleosidase), sequence (P16687 whole entry): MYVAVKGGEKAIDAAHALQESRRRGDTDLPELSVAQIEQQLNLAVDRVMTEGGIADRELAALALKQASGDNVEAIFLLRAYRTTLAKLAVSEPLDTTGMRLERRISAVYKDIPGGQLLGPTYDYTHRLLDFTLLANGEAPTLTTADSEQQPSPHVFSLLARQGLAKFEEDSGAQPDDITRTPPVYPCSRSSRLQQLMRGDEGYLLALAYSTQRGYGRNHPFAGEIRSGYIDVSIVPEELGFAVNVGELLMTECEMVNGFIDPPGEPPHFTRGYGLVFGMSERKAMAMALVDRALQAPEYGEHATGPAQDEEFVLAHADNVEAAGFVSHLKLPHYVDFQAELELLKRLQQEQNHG

For “PhnI (C-P lyase nucleosidase) (Escherichia coli K-12)”, in data set [1], the Km was 95 ± 12 µM.
As for `Nc1ncnc2c([C@@H]3N[C@H](COP(=O)(O)OP(=O)(O)OP(=O)(O)O)[C@@H](O)[C@H]3O)c[nH]c12` [ImmA-TP, Immucillin-A triphosphate], the Kd in data set [2] came out at 20 ± 4 nM.

As usually defined, the Km is the substrate concentration at which the rate is half of its maximum. The Kd is the free concentration of one partner at which half of the binding sites on the other are occupied at equilibrium, for simple one-to-one binding. Lower therefore signals higher affinity.

The record behind these values is publication PMC3838859 (Biochemistry, 2013).
